Consider 25 sequences from the supplement of paper PMC9170038.

The test system of the data set is MS2 coat protein. Nature of the data set: apparent KD of MS2 coat protein; designed switch direction (-1 OFF switch, 1 ON switch): -1; higher = weaker reporter binding. In short, it runs like this: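 SNAP-549-labelled MS2 coat protein was titrated, doubling from 0.7 or 1.5 nM to 3 µM, over designed RNA switches transcribed on Illumina chips by stalled E. coli RNA polymerase. Runs were done without input, with 200 uM small-molecule ligand, or with an oligonucleotide input. Apparent KD is the per-design median over clusters of curve-fitted normalised fluorescence.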

Setting [1] is: input ligand: microRNA oligo, concentration not stated.
Setting [2] is: Eterna round: R95, input ligand: microRNA oligo, concentration not stated.
The mark [3] stands for this setting: Eterna round: R95, input ligand: FMN 200 uM.
Where [4] appears, read: Eterna round: R95, input ligand: none.

Turning to “UACAUGAGGAUCACCCAUGUUUUGUCGUGUAUGGUAUUUAUCUAGGAUAUCAUUGUAUUUAGUUAUGAGAAGGAGAAUAUUAAU [JMF's solution 83] (Eterna round: R96, puzzle: Exclusion NG 3)”, the “apparent KD of MS2 coat protein” value was 30.2 nM (input ligand: FMN 200 uM), 22.9 nM under setting [1] and 33 nM (input ligand: none).

For “UACCUCACUUCUUUGACUCACAUGAGGAUCACCCAUGUAAUAUAGGAUAUGCAUUUUAUUUCUUUGCAGAAGGAUAUUAGUUUU [JR_ExcNG3_Sub089] (Eterna round: R96, puzzle: Exclusion NG 3)”, the “apparent KD of MS2 coat protein” value under setting [1] is 31.3 nM. Consider “UACUAUAAGGAGGAUAUCGUAUCGGAAACGAUACGAGAAGGCUUAACAUGAGGAUCACCCAUGUUCUUCAAUAA [Fiskers Ex 6 - 25] (puzzle: Exclusion 6)”, for which the “apparent KD of MS2 coat protein” value under setting [2] came out at 16.2 nM. With “UACUAUAAGGAGGAUAUCGUAUCGGAAACGAUACGAGAAGGCUUAACAUGAGGAUCACCCAUGUUCUUCAAUAU [Fiskers Ex 6 - 26] (puzzle: Exclusion 6)”, the “apparent KD of MS2 coat protein” value was found to be 16 nM under setting [3], 16.2 nM under setting [2] and 14.6 nM under setting [4].

Take “UAGAAGGUAGGAUAUACGAAUAAAUAGGGUAGUAAUAAUACACAUGAGGAUCACCCAUGUAGAAGGACCAAGAU [Mat - Exclusion 2 - Mod of my Tesla design - D31] (puzzle: Exclusion 2)”: the “apparent KD of MS2 coat protein” value runs as follows: under setting [3], 44.2 nM; under setting [2], 20.1 nM; under setting [4], 23 nM. On to “UAGAGACAUGAGGAUCACCCAUGUGAGGAUAUAGAGAAAGAUUGCGAGAGGGAGAGGACUAGAAGGCACAGUGA [JR_Exclu1_Sub033] (puzzle: Exclusion 1)”, for which the “apparent KD of MS2 coat protein” value under setting [3] was determined as 39.1 nM, the “apparent KD of MS2 coat protein” value under setting [2] turned out to be 48.8 nM and the “apparent KD of MS2 coat protein” value under setting [4] came out at 51.9 nM. For “UAGAUGGCUCAGGAUAUUUGCCAACUAACUCGCGAAGAAGGGAGCACAUGAGGAUCACCCAUGUGAUCGAACGG [Rila] (puzzle: Exclusion 6)”, under setting [2], the “apparent KD of MS2 coat protein” value stood at 16.3 nM.

With “UAGAUGGGAGGAUAUACAUAGAUACAGAUUCAUGUAGUGCUACAUGAGGAUCACCCAUGUAGAAGGCCCGUCUU [JL-ex2-2.18 Mayanne mod] (Eterna round: R96, puzzle: Exclusion 2)”, the “apparent KD of MS2 coat protein” value was 407 nM (input ligand: FMN 200 uM), 33.2 nM under setting [1] and 37.9 nM (input ligand: none). Take “UAGAUGGGAGGAUAUACAUAGAUACAGAUUCAUGUAGUGCUACAUGAGGAUCACCCAUGUAGAAGGCCCGUCUU [JL-ex2-2.18 Mayanne mod] (puzzle: Exclusion 2)”: the “apparent KD of MS2 coat protein” value under setting [2] worked out at 31.6 nM. Still for that read-out and setting: to “UAGAUGGGAGGAUAUGCGUAGAUGCGGAUUCGUGUGGUGCUACAUGAGGAUCACCCAUGUAGAAGGCCCGUCUU [JL-ex2-2.26 Mayanne mod] (puzzle: Exclusion 2)” belongs 13.5 nM. Take “UAGAUGUGAGGAUAUACAUGAAUGCAGGAUCGUGUGGUGCUACAUGAGGAUCACCCAUGUAGAAGGCACGUCUU [Mod 9 R3 JL-ex2-2.29 - Jieux - Exclusion 2] (Eterna round: R97, puzzle: Exclusion 2)”: the “apparent KD of MS2 coat protein” value (input ligand: FMN 200 uM) amounted to 20 nM and the “apparent KD of MS2 coat protein” value (input ligand: none) was 13.9 nM. For the sequence “UAGCAUUGCCUUUGGUAGUGCUUUACAUGAGGAUCACCCAUGUAGGAUAUGGUAGGCUUUGCUUACCAGAAGGACAUGAUAAUU [JL ENG3 1.04] (Eterna round: R96, puzzle: Exclusion NG 3)”, the “apparent KD of MS2 coat protein” value under setting [1] was 52.3 nM.

As for “UAGCUUCCGGUCAGGAUAUACGCUGGCGAAUAGCAGUAGAAGGGACAUGAGGAUCACCCAUGUGGGUUCAAAGA [Zabetima] (puzzle: Brourd's mod of Exclusion 4)”, the “apparent KD of MS2 coat protein” value was 91 nM under setting [3], 39.4 nM under setting [2] and 44.2 nM under setting [4]. “UAGGUGUGAGGAUAUGGUAAAGAUAAGAUGAUGAAAGAACUCCAGAAGGCACAUGAGGAUCACCCAUGUAGAUA [Mat - Exclusion 4 - Mod of JL - D31] (puzzle: Exclusion 4)”: the “apparent KD of MS2 coat protein” value turned out to be 34.9 nM under setting [3], 20 nM under setting [2] and 20.5 nM under setting [4].

Consider “UAGUAGCAAGGAUAUACAGAGGAGAGGAUUGCAAGAGGUGGACAUGAGGAUCACCCAUGUAGAAGGUGCAGAGA [JR_Exclu2_Sub021] (puzzle: Exclusion 2)”, for which the “apparent KD of MS2 coat protein” value came out at 310 nM under setting [3], 275 nM under setting [2] and 362 nM under setting [4].

Take “UAGUGCUGAGGAUAUACAUGAGGAUCACCCAUGUGCCUUUAACUUAAAGUGUGCACAAGUAGAAGGCGGUGCAA [Eternabot (L1) Solution 93] (Eterna round: R97, puzzle: Exclusion 3)”: the “apparent KD of MS2 coat protein” value turned out to be 20 nM (input ligand: FMN 200 uM) and 19.5 nM (input ligand: none). As to “UAUACUAGAUAGGAUAUACUAUAUAAAUAAUUCGUAGAAGGAUCUACAUGAGGAUCACCCAUGUUAACAGCAGU [JR_E6_Sub005] (puzzle: Exclusion 6)”, the “apparent KD of MS2 coat protein” value under setting [3] came out at 30.7 nM, the “apparent KD of MS2 coat protein” value under setting [2] is 46.6 nM and the “apparent KD of MS2 coat protein” value under setting [4] stood at 46.6 nM.

Regarding “UAUAUAUAGUAAGGAUAUGUAAAUAUUUUAUAAACAGAAGGUACUGACAUGAGGAUCACCCAUGUUUUAGUGUGGGCAUGUAGA [JMF's solution 28] (Eterna round: R96, puzzle: Exclusion NG 1)”, the “apparent KD of MS2 coat protein” value under setting [1] came to 66.2 nM. As to “UAUAUAUAGUAAGGAUAUGUAAUUAGUUUAUAAACAGAAGGUACUGACAUGAGGAUCACCCAUGUUUUAGUGUGGGCAUGUAGA [JMF's solution 36] (Eterna round: R96, puzzle: Exclusion NG 1)”, under setting [1], the “apparent KD of MS2 coat protein” value was determined as 61.3 nM. Still for that read-out and setting: the result for “UAUAUAUAGUAAGGAUAUGUAUAUAUUUCAUAAACAGAAGGUACUGACAUGAGGAUCACCCAUGUUUUAGUGUGGGCAUGUAGA [JMF's solution 65] (Eterna round: R96, puzzle: Exclusion NG 1)” reads 48 nM. Still for that read-out and setting: the result for “UAUAUAUAGUAAGGAUAUGUAUUAAUUUUAUGAACAGAAGGUACUGACAUGAGGAUCACCCAUGUUUUAGUGUGGGCAUGUAGA [JMF's solution 91] (Eterna round: R96, puzzle: Exclusion NG 1)” reads 65.5 nM; that for “UAUAUAUAGUAAGGAUAUGUAUUAUUUUUAUAAACAGAAGGUACUGACAUGAGGAUCACCCAUGUUUUAGUGUGGGCAUGUAGA [JMF's solution 73] (Eterna round: R96, puzzle: Exclusion NG 1)”, 36.9 nM; that for “UAUAUAUAGUAAGGAUAUGUAUUUAAUUUAUAAACAGAAGGUACUGACAUGAGGAUCACCCAUGUUUUAGUGUGGGCAUGUAGA [JMF's solution 13] (Eterna round: R96, puzzle: Exclusion NG 1)”, 80.8 nM.

“UAUCGCAAGCGAAGAUCCCACAUGAGGAUCACCCAUGUGCUCGUCUUAUAAGGUACUGUGACGAAAGUCACGGUACC [Sensor 3, v1 - 91 v15] (Eterna round: R97, puzzle: Sensor, turn-off variant 1)”: the “apparent KD of MS2 coat protein” value by setting is: (input ligand: FMN 200 uM) 31.6 nM; (input ligand: none) 32.2 nM. “UAUGCCUUUGUGAGGAUAUACUUUGUUUGGUCGUAGUAGAAGGCACAUGAGGAUCACCCAUGUAGAUUUUUGGU [JR_BME4_Sub012] (puzzle: Brourd's mod of Exclusion 4)”: the “apparent KD of MS2 coat protein” value under setting [2] came to 25.4 nM.
